Laboratory results: paper PMC8783683, “Plasma cell dependence on histone/protein deacetylase 11 reveals a therapeutic target in multiple myeloma” (JCI Insight, 2021)

B1: histone/protein deacetylase 11 (HDAC11), endogenous (enzyme, UniProt Q96DB2 1-347, looked up)
chain: MLHTTQLYQHVPETRWPIVYSPRYNITFMGLEKLHPFDAGKWGKVINFLKEEKLLSDSMLVEAREASEEDLLVVHTRRYLNELKWSFAVATITEIPPVIFLPNFLVQRKVLRPLRTQTGGTIMAGKLAVERGWAINVGGGFHHCSSDRGGGFCAYADITLAIKFLFERVEGISRATIIDLDAHQGNGHERDFMDDKRVYIMDVYNRHIYPGDRFAKQAIRRKVELEWGTEDDEYLDKVERNIKKSLQEHLPDVVVYNAGTDILEGDRLGGLSISPAGIVKRDELVFRMVRGRRVPILMVTSGGYQKRTARIIADSILNLFGLGLIGPESPSVSAQNSDTPLLPPAVP
notes: HDAC11, endogenous in human multiple myeloma cells (MM1.S line and primary patient MM cells), detected by mouse anti-HDAC11 in PLA; source: endogenous, MM1.S cells; endogenous, patient-derived primary MM cells

What was measured:
[1] = target: T1, IFN response factor 4 (IRF4), endogenous (human (endogenous in MM1.S and primary …, UniProt Q15306 1-451)); experiment: proximity ligation assay (PLA); conditions: MM1.S cells transfected with OE.HDAC11mut, read off a plot
T1 construct: IRF4, endogenous in human multiple myeloma cells (MM1.S line and primary patient MM cells), detected or precipitated by anti-IRF4; source: endogenous, MM1.S cells (fixed cells and lysate); endogenous, patient-derived primary MM cells
T1 sequence (looked up): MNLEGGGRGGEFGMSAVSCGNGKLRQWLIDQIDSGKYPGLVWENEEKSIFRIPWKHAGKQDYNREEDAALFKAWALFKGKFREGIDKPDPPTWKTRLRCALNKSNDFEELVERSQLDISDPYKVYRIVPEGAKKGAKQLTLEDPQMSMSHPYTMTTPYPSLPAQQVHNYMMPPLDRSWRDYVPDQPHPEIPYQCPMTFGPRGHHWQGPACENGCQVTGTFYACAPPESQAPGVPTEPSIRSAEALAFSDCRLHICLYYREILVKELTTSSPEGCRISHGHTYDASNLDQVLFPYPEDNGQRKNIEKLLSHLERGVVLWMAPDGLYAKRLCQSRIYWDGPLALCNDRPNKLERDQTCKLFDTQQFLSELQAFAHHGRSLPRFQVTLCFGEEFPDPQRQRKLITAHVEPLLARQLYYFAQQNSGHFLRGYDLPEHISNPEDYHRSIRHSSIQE

[2] = target: T1, IFN response factor 4 (IRF4), endogenous; experiment: proximity ligation; primary MM cells from patient samples, cultured with the patient's serum, untreated or with LPS (5 μg/mL, 24 hours); conditions: partners not purified

Molecule | response (# Foci Per Cell) ([1]; cytoplasmic foci, parent: est. 17) | response (# Foci Per Cell) ([1]; nuclear foci, parent: est. 105) | fold increase of nuclear PLA complexes with LPS against untreated cells [2]
HA-tagged WT HDAC11 (HDAC11^wt.HA) (from UniProt Q96DB2) HDAC11mut | 18 | 13 | 
B1 |  |  | 4.5 fold
